Assays:
[1] = tested on: Raji-Luc-GFP tumour cells; details: around day 33, after SiTE
Protocol: FIG. 42A: NSG-SGM3 mice were treated with Busulfan at day −50 to remove mouse bone marrow. At day −49, 10^5 human CD34^+ fetal liver cells were i.v. injected to let the mouse develop a human immune system. 10^6 Raji-Luc-GFP tumour cells were i.v. injected at day −14. At days 1, 3, and 5, PBS or SiTE was i.v. injected (in the PBS group, only PBS was injected to tumour-bearing mice). […] FIGS. 42B-42E: mouse body weight, temperature, IL-6 levels, and mouse survival curves, respectively. n=10 mice. The red stars in FIG. 42B indicate that mice were euthanized. FIG. 42F: measurements of IL-1 in mouse blood at different time points. n=10 mice. […] Brain H&E staining (FIG. 42I) and human CD68 immunohistochemistry (FIG. 42J) images of mice at day 35. The data in FIGS. 42B-42F were plotted as mean z s.d. (n=10) from three independent experiments.
It was also evaluated if the SiTE can help control neurotoxicity. In the clinic, neurotoxicity is usually delayed and occurs several […] after CRS onset. Tumour-bearing mice were treated with SiTE at days 1, 3 and 5 (FIG. 42A). […] Rather than use a preventative strategy for treating CRS (FIGS. 40A-40M), here Tocilizumab was used to treat CRS when symptoms presented, so that it can be compared directly with the SiTE strategy. […] Studies have shown that IL-1 is the major cause of neurotoxicity.

[2] = Half-life and biodistribution of Blinatumomab and CD3/CD19 SiTE; format: in vivo, mouse
Protocol: FIGS. 17A-17F: half-life and in vivo biodistribution of Blinatumomab. FIGS. 17A-17B: Blinatumomab was labeled with Cy7 and was i.v. injected to healthy untreated mice. 10 μL of blood at 0, 1, 2, 4, 6, 12, 24, 36 and 48 h was collected and imaged using IVIS. The fluorescence signal at different time points were quantified (FIG. 17B). FIG. 17C: the biodistribution of Blinatumomab in healthy mice was also investigated 24 h after Blinatumomab-Cy7 injection. FIG. 17D: In order to mimic a clinical patient treatment, a mouse model was constructed with CD19 expression in the liver and a subcutaneous B-cell lymphoma model. Blinatumomab-Cy7 was i.v. injected at 0 h. The mice were euthanized at 24 h and the distribution of Blinatumomab-Cy7 in major organs and tumour was evaluated. The Blinatumomab-Cy7 mainly accumulates in the liver, spleen and tumour. The distribution of SiTE that targets human CD3 and human CD19 antigen was evaluated in both healthy untreated mice (FIG. 17E) and in a mouse model with CD19 expression in the liver and has a subcutaneous B-cell lymphoma tumour (FIG. 17F), similar results were obtained.
Encouraged by the results from the in vitro experiments, the controllable activity of SiTE was evaluated in vivo. […] It was also analyzed if the biodistribution of SiTE both in healthy NSG mice and in Raji tumour-bearing humanized NSG mice that express CD19 antigen in the liver. […]

[3] = tested on: Raji-Luc-GFP tumour cells; assay: Cytokine release syndrome in humanized NSG-SGM3 mice with Raji-Luc-GFP tumour; format: in vivo, mouse
Protocol: An in vivo imaging system (IVIS) was used to monitor tumour burden in vivo. […] FIGS. 41C-41E: Mouse body weight, temperature and survival curves, respectively. n=10 mice. […] The data in FIGS. 41C-41D and FIGS. 41F-41J were plotted as mean±s.d. (n=10) from three independent experiments. […] P value in FIG. 41E was determined using Log-rank (Mantel-Cox) test.
SiTE and Blinatumomab were also compared with regard to treating symptoms of CRS and neurotoxicity. The humanized mouse model was constructed as before, but this time the piggybac transposon system was not used to express CD19 in the mouse livers. This allowed better analysis of the effects of the SiTE on CRS and neurotoxicity (FIG. 41A). Raji-Luc-GFP cells were i.v. injected at day −14. Blinatumomab, SiTE or PBS were i.v. injected to the mice at day one. Mouse tumour burden, body weight, temperature, and plasma cytokine levels were monitored (FIGS. 41B-41J).

Raji-Luc-GFP cells = assay: Antitumour efficacy in normal NSG mice with Raji-Luc-GFP tumour; format: in vivo, mouse; details: days 1, 3, 5
Excerpt: FIGS. 43A-43C: comparison of the antitumour efficacy of SITE and Blinatumomab. In order to solely compare the antitumour capacity of Blinatumomab and the SiTE, CD19 antigen was not expressed in mouse liver so BiTNE or SiTE treatment will not induce on-target, off-tumour toxicity. Additionally, normal NSG mice (without humanization) were used to construct the tumour model so the mice will not develop CRS. FIG. 43A: Raji-Luc-GFP cells were i.v. injected to mice at day −14. Tumour bearing mice were treated with Blinatumomab or SiTE at days 1, 3, or 5. FIG. 43B: mice were imaged using IVIS at days 0, 5, 9, and 13 to monitor the tumour burden level. c, Quantification of the luminescence levels in FIG. 43B. The data in FIG. 43C were plotted as mean s.d. (n=5) f. P value in FIG. 43C was determined using one-way ANOVA.
In order to specifically assess the antitumour efficacy of Blinatumomab and the SiTE, expression of the CD19 antigen in the mouse liver was refrained from. By employing this approach, it was ensured that treatment with either Blinatumomab or SiTE would not elicit on-target, off-tumour toxicity. To further avoid the effect of CRS on the evaluation of the therapeutic outcome of Blinatumomab and SiTE, normal NSG mice were employed, devoid of humanization.

[4] = tested on: Raji-Luc-GFP tumour cells; assay: Blinatumomab vaccine effect and CRS after discontinuation; format: in vivo, mouse
Protocol: Raji tumour cells and human T cells were co-cultured in serum-free medium and were treated with Blinatumomab for 24 h. After that, the cell culture medium was collected and the proteins in the medium were analyzed using proteomics. FIG. 44A: Large amount of damage associated molecule patterns (DAMPs); and FIG. 44B: tumour associated antigens were detected in the cell culture medium. FIG. 44C: Raji tumour bearing humanized NSG mice were treated with three doses of Blinatumomab. […] Then, Raji-Luc-GFP cell viability was determined. […] The data in FIG. 44C are presented as mean±s.d. (n=5) f. P value in FIG. 44C was determined using one-way ANOVA.
FIGS. 45A-45C: CRS symptoms cannot be stopped by simply stop the administration of Blinatumomab. FIG. 45A: humanized NSG mice were i.v. injected with Raji-Luc-GFP cells on day −14. Then Blinatumomab were administrated at days 1, 3, or 5. FIG. 45B: IL-6 level in mouse blood were monitored. FIG. 45C: survival curve.
It was also investigated if Blinatumomab could also induce a vaccine effect. […] It was also questioned whether CRS could be halted by simply discontinuing the administration of Blinatumomab, owing to its inherent short half-life. […] The pronounced targeting of T cells and CD19-expressing cells, coupled with heightened activation of many immune cells, served to amplify the cytokine cascade, rendering it impervious to interruption by the mere discontinuation of Blinatumomab usage. These findings underscore the critical exigency for the development of an alternative to Blinatumomab, one that can be switched off as needed, in this rapidly evolving research field.

[5] = mouse, in vivo; cited from earlier work
[6] = tested on: Raji-Luc-GFP tumour cells; assay: Humanized immune system mice with liver CD19 and Raji-Luc-GFP tumour; details: SiTE targets human CD3/CD19

Substance | signs of lethal neurological syndrome [1] | biodistribution ([2]; Raji tumour-bearing humanized mice expressing human CD19 in the liver) | biodistribution ([2]; healthy mice with a humanized immune system, i.v.) | fever and body weight ([3]; 5 mg/kg, days 1, 3, 5, SiTE targets human CD3/CD19) | plasma IL-6, IFN-γ, TNF-α, CXCL10 and CCL3 concentrations ([3]; after treatment) | tumour growth (Raji-Luc-GFP cells) | release of DAMPs and tumour antigens from tumour cells ([4]; high dose, Raji cells and human T cells, 24 h) | tumour cell killing by T cells from treated mice ([4]; high dose, vs T cells from PBS-treated mice) | serum IL-6 ([4]; humanized NSG mice, persisted after cessation) | half-life [5] | tumour cell killing (IVIS) ([6]; 5 mg/kg i.v. x3, Tocilizumab pre-treatment) | on-target, off-tumour toxicity and CRS ([6]; 5 mg/kg i.v. x3)
Tocilizumab: commercialized drug for CRS treatment; antibody for the IL-6 receptor | developed sudden paralysis |  |  |  |  |  |  |  |  |  |  | 
Blinatumomab: first BiTE to receive FDA approval; links CD3-positive T cells to CD19-expressing B cell cancers |  | high accumulation of Blinatumomab in the tumours, livers, and spleens | accumulated greatly in the spleens | induced high fever and body weight loss | greatly increased | substantial suppression of tumour growth | substantial release of DAMPs and tumour antigens | substantial tumour cell killing | notable elevation of IL-6 levels | 2.11 h | induced effective tumour cell killing | not only induced on-target, off-tumour toxicity in the liver, but led to strong CRS
